From patent publication US20240279281A1, “Peptide Inhibitors of Interleukin-23 Receptor” (Janssen Pharmaceutica NV, priority 2023, published 2024)
Positions of bridges follow the written chain, without caps; N, C: chain ends. Non-standard residues stand in square brackets, D forms with d. No end group written: not given here. Trp(7-Me) = Cc1cccc2c(C[C@H](N)C(=O)O)c[nH]c12; d(hLys(Me3)) = C[N+](C)(C)CCCCC[C@@H](N)C(=O)O; 3Pal = N[C@@H](Cc1cccnc1)C(=O)O; Lipidated = not defined here; NMeK = CN[C@@H](CCCCN)C(=O)O; Pen = CC(C)(S)[C@H](N)C(=O)O; lipid = not defined here; Thp = NC1(C(=O)O)CCOCC1; Sar = CNCC(=O)O

Molecular target: T1, interleukin-23 receptor (IL-23R), Q5VWK5
T1 chain: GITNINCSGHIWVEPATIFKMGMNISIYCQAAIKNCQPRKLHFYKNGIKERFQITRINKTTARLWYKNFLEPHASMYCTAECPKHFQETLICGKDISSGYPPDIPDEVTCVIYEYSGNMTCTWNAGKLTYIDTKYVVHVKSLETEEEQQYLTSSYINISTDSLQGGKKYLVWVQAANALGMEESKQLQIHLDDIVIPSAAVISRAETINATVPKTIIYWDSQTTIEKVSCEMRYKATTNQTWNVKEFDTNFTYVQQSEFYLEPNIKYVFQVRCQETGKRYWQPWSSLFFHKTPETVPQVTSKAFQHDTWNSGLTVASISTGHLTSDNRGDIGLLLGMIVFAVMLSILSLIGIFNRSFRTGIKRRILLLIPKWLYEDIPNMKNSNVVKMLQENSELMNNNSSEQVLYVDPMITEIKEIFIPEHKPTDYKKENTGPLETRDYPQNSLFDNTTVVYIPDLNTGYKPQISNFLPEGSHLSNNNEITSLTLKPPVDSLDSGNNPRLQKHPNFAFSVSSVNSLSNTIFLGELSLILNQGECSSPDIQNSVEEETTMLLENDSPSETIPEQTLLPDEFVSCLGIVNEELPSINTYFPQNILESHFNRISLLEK
Assay: cell-based or functional assay

Binder	PBMC pSTAT3 IC50
R[Pen]NT[Trp(7-Me)]K(Ac)[Pen][2‑amino‑3‑(4-(2-aminoethoxy)phenyl)propanoic acid][2‑amino‑3‑(6-hydroxynaphthalen-2-yl)propanoic acid][Thp]EN[3Pal][NMeK] (disulfide 2-7 (inferred); not fully specified (residue 14); ends not checked; also: X14 lipidated N-methyl-lysine, lipid not given here) [SEQ ID NO: 190]	< 1 nM
[Pen]ET[Trp(7-Me)]K(Ac)[Pen][2‑amino‑3‑(4-(2-aminoethoxy)phenyl)propanoic acid][2‑amino‑3‑(6-hydroxynaphthalen-2-yl)propanoic acid][Thp]K(lipid)N[3Pal][Sar] (disulfide 1-6 (inferred); ends not checked; also: K10: lipidated lysine, lipid not given here) [SEQ ID NO: 215]	< 0.1 nM
[(R)‑3‑carboxy‑2‑(4-(((R)-5-carboxy-5-hydrazineylpentyl)amino)-4-oxobutanamido)‑N,N,N‑trimethylpropan‑1‑aminium][Pen]NT[Trp(7-Me)]K(Ac)[Pen][2‑amino‑3‑(4-(2-aminoethoxy)phenyl)propanoic acid][2‑amino‑3‑(6-hydroxynaphthalen-2-yl)propanoic acid][Thp]EN[3Pal][NMeK] (disulfide 2-7 (inferred); not fully specified (residue 14); ends not checked; also: X14: lipidated N-methyl-lysine, lipid not given here) [SEQ ID NO: 204]	< 1 nM
K(lipid)[Pen]NT[Trp(7-Me)]K(Ac)[Pen][2‑amino‑3‑(4-(2-aminoethoxy)phenyl)propanoic acid][2‑amino‑3‑(6-hydroxynaphthalen-2-yl)propanoic acid][Thp]K(Ac)N[3Pal][Sar] (disulfide 2-7 (inferred); ends not checked; also: Lys1 lipidated, lipid not given here) [SEQ ID NO: 216]	< 0.1 nM
[d(hLys(Me3))][Pen]NT[Trp(7-Me)]K(Ac)[Pen][2‑amino‑3‑(4-(2-aminoethoxy)phenyl)propanoic acid][2‑amino‑3‑(6-hydroxynaphthalen-2-yl)propanoic acid][Thp]K(Ac)N[3Pal][Sar]K(lipid) (disulfide 2-7 (inferred); ends not checked; also: K15 lipidated lysine, lipid not given here) [SEQ ID NO: 181]	< 1 nM
[Pen]NT[Trp(7-Me)]K(Ac)[Pen][2‑amino‑3‑(4-(2-aminoethoxy)phenyl)propanoic acid][2‑amino‑3‑(6-hydroxynaphthalen-2-yl)propanoic acid][Thp]K(Ac)N[3Pal][Sar]K(lipid) (disulfide 1-6 (inferred); ends not checked; also: K14 lipidated lysine, lipid not given here) [SEQ ID NO: 182]	< 1 nM
[Pen]ET[Trp(7-Me)]K(lipid)[Pen][2‑amino‑3‑(4-(2-aminoethoxy)phenyl)propanoic acid][2‑amino‑3‑(6-hydroxynaphthalen-2-yl)propanoic acid][Thp]K(Ac)N[3Pal][Sar] (disulfide 1-6 (inferred); ends not checked; also: K5: lipidated lysine, lipid not given here) [SEQ ID NO: 214]	< 1 nM
[Pen]ET[Trp(7-Me)]K(Ac)[Pen][2‑amino‑3‑(4-(2-aminoethoxy)phenyl)propanoic acid][2‑amino‑3‑(6-hydroxynaphthalen-2-yl)propanoic acid][Thp]K(Ac)N[3Pal][Sar]K(lipid) (disulfide 1-6 (inferred); ends not checked; also: K14 lipidated, lipid not given here) [SEQ ID NO: 170]	< 1 nM
[Pen]ET[Trp(7-Me)]K(Ac)[Pen][2‑amino‑3‑(4-(2-aminoethoxy)phenyl)propanoic acid][2‑amino‑3‑(6-hydroxynaphthalen-2-yl)propanoic acid][Thp]K(Ac)N[3Pal][Sar]K(lipid) (disulfide 1-6 (inferred); ends not checked; also: K14 lipidated, lipid not given here) [SEQ ID NO: 169]	< 1 nM
[Pen]NT[Trp(7-Me)]K(Ac)[Pen][2‑amino‑3‑(4-(2-aminoethoxy)phenyl)propanoic acid][2‑amino‑3‑(6-hydroxynaphthalen-2-yl)propanoic acid][Thp]K(Lipidated)N[3Pal][Sar] (disulfide 1-6 (inferred); ends not checked; also: K10 lipidated lysine, lipid not given here) [SEQ ID NO: 186]	< 1 nM
[Pen]ET[Trp(7-Me)]K(Lipidated)[Pen][2‑amino‑3‑(4-(2-aminoethoxy)phenyl)propanoic acid][2‑amino‑3‑(6-hydroxynaphthalen-2-yl)propanoic acid][Thp]K(Ac)N[3Pal][Sar] (disulfide 1-6 (inferred); ends not checked; also: K5: lipidated lysine, lipid not given here) [SEQ ID NO: 192]	< 1 nM
[d(hLys(Me3))][Pen]NT[Trp(7-Me)]K(Ac)[Pen][2‑amino‑3‑(4-(2-aminoethoxy)phenyl)propanoic acid][2‑amino‑3‑(6-hydroxynaphthalen-2-yl)propanoic acid][Thp]K(Lipidated)N[3Pal][Sar] (disulfide 2-7 (inferred); ends not checked; also: K11 lipidated lysine, lipid not given here) [SEQ ID NO: 184]	< 1 nM
[(R)‑3‑carboxy‑2‑(4-(((R)-5-carboxy-5-hydrazineylpentyl)amino)-4-oxobutanamido)‑N,N,N‑trimethylpropan‑1‑aminium][Pen]NT[Trp(7-Me)]K(Ac)[Pen][2‑amino‑3‑(4-(2-aminoethoxy)phenyl)propanoic acid][2‑amino‑3‑(6-hydroxynaphthalen-2-yl)propanoic acid][Thp]EN[3Pal][NMeK] (disulfide 2-7 (inferred); not fully specified (residue 14); ends not checked; also: X14: lipidated N-methyl-lysine, lipid not given here) [SEQ ID NO: 210]	< 1 nM
R[Pen]NT[Trp(7-Me)]K(Ac)[Pen][2‑amino‑3‑(4-(2-aminoethoxy)phenyl)propanoic acid][2‑amino‑3‑(6-hydroxynaphthalen-2-yl)propanoic acid][Thp]EN[3Pal][Sar]K(Lipidated) (disulfide 2-7 (inferred); ends not checked; also: K15: lipidated lysine, lipid not given here) [SEQ ID NO: 191]	< 1 nM
[Pen]NT[Trp(7-Me)]K(Ac)[Pen][2‑amino‑3‑(4-(2-aminoethoxy)phenyl)propanoic acid][2‑amino‑3‑(6-hydroxynaphthalen-2-yl)propanoic acid][Thp]K(Lipidated)N[3Pal][Sar] (disulfide 1-6 (inferred); ends not checked; also: K10 lipidated lysine, lipid not given here) [SEQ ID NO: 185]	< 1 nM
[Pen]NT[Trp(7-Me)]K(Ac)[Pen][5‑(4-(2-amino-2-carboxyethyl)phenoxy)‑N,N,N‑trimethylpentan‑1‑aminium][2‑amino‑3‑(6-hydroxynaphthalen-2-yl)propanoic acid][Thp]K(Lipidated)N[3Pal][Sar] (disulfide 1-6 (inferred); ends not checked; also: K10: lipidated lysine, lipid not given here) [SEQ ID NO: 198]	< 1 nM
[Pen]ET[Trp(7-Me)]K(Ac)[Pen][2‑amino‑3‑(4-(2-aminoethoxy)phenyl)propanoic acid][2‑amino‑3‑(6-hydroxynaphthalen-2-yl)propanoic acid][Thp]K(Lipidated)N[3Pal][Sar] (disulfide 1-6 (inferred); ends not checked; also: K10: lipidated lysine, lipid not given here) [SEQ ID NO: 193]	< 1 nM
